Laboratory results: PMC11915744

Target: NS1 used in the SPR assay (UniProt P03496)
Assay: SPR

Sequence of UniProt P03496 (P03496 whole entry): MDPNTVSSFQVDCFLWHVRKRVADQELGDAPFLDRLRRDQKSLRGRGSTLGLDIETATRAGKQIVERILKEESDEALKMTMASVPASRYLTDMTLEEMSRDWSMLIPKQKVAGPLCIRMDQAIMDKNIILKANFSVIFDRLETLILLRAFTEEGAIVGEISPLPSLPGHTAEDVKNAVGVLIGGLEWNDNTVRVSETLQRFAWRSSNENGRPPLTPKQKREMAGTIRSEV

Substance: hnRNPH1 used in the SPR assay (from UniProt P31943 1-449) (natural protein)
- Kd: 10.4 µM
